Numbering of substitutions follows the chain as printed.
B1: HSV010-20: gB-1 specific mouse monoclonal IgG; IgH SEQ ID NO: 64, IgL SEQ ID NO: 66 (antibody, V domains shown)
VH: DVQLQESGPGMVRPSQSLSLTCTVTGYSITSGYDWHWIRHFPGNKLEWMGYISYSGLTNYNPSLRSRFSITHDTSKNHFFLKLNSVTTEDTATYYCARGPPWYFDVWGTGTTVTVSSA
VL: DIVMTQSQKFMSTSVGGRVSITCKASQIVRATVAWYQQKPGQSPKPLIYLASNRHTGVPDRFTGSGSGTDFTLTISNVQSEDLADYFCLQYWNYPYTFGGGTKLEIKR
modifications: HSV010-20 heavy chain; HSV010-20 light chain
B2: HSV010-4: gB-1 specific mouse monoclonal IgG; IgH SEQ ID NO: 32, IgL SEQ ID NO: 34 (antibody, V domains shown)
VH: QVQLKESGPGLVAPSQSLSITCTVSGFSLSRHDVSWVRQPPGKGLEWLGVIWGDGSTNYHSALISRLSISKDNSKSQVFLKLNSLQNDDTATYYCAKEDYGIFPYWGQGTLVTVSAA
VL: DIKMTQSPSSMYASLGEKVTITCKASQDISSYLSWFQQKPGKSPKTLIYRANRLVDGVPSRFSGSGSGQDYSLSISSLDYEDMGIYYCLQYDEFPLTFGAGTKLELKR
modifications: HSV010-4 heavy chain; HSV010-4 light chain
B3: HSV010-7: gB-1 specific mouse monoclonal IgG; IgH SEQ ID NO: 36, IgL SEQ ID NO: 38 (antibody, V domains shown)
VH: QVQLQQSGPELVKPGASVKLSCKASGYTFTNYDINWVKQRPGQGLEWIGWIYPRDGSTKYNEKFKGKATLTIDTSSSTAYMELHSLTSEDSAVYFCARGIFYVNYDVYWGQGTLVTVSAA
VL: DIQMTQSSSFLSVSLGGRVTITCKASDHINNWLAWYQQKPGHAPRLLISGAASLETGVPSRFSGSGSGKDYTLTITSLQTEDVATYYCQQYWSSPLTFGGGTKLELKR
modifications: HSV010-7 heavy chain; HSV010-7 light chain
B4: HSV010-9: gB-1 specific mouse monoclonal IgG; IgH SEQ ID NO: 48, IgL SEQ ID NO: 50 (antibody, V domains shown)
VH: QVQLQQPGAELVKPGASVKLSCKSSGYTFTSYWMHWVKQRPGQGLEWIGMIHPNSGITHYNEKFKTKATLTVDKSSSTAYMQLSSLTSEDSAVSYCARGSNSGSAWFAYWGQGTLVTVSAA
VL: B3 VL with F10Y, H42N, A52T, T74S, S94T, G100A
modifications: HSV010-9 heavy chain; HSV010-9 light chain
B5: HSV010-34: gB-1 specific mouse monoclonal IgG; IgH SEQ ID NO: 40, IgL SEQ ID NO: 42 (antibody, V domains shown)
VH: EVQLVESGGGLVQPGESLKLSCESNEYEFPSHDMSWVRKTPEKRLELVAAINSDGGSTYYPDTMERRFIISRDNTKKTLYLQMSSLRSEDTALYYCARHSSGYVLDYWGQGTSVTVSSA
VL: B3 VL with F10Y, N31H, H42N, A52T, T74S, T76A, S94T, L96Y, L106I
modifications: HSV010-34 heavy chain; HSV010-34 light chain
B6: HSV010-6: gB-1 specific mouse monoclonal IgG; IgH SEQ ID NO: 44, IgL SEQ ID NO: 46 (antibody, V domains shown)
VH: B4 VH with S24A, S31N, M34I, S55I, N61S, K63R, T66S, S77T, S94Y, N101D
VL: B3 VL with F10Y, Q37L, H42N, I48M, A52T, T74S, S94T, G100A
modifications: HSV010-6 heavy chain; HSV010-6 light chain
B7: HSV010-16: gB-1 specific mouse monoclonal IgG; IgH SEQ ID NO: 76, IgL SEQ ID NO: 78 (antibody, V domains shown)
VH: QIQLVQSGPELKKPGETVKISCKASGYTFTTYGMSWVKQAPGKDLKWMGWINTYSGVSTYGDDFKGRFALSLETSASTAYLQINNLKNEDTATYFCAQLNYGMDYWGQGTSVTVSSA
VL: DIVMTQSHKFMSTSVGDRVSITCKASQDVSTSLAWYQQKPGQSPKLLIYSASYRYTGVPDRFTGSGSGTDFTFTISSVQAEDLAVYYCHQHYSIPRTFGGGTKLEIKR
modifications: HSV010-16 heavy chain; HSV010-16 light chain
B8: HSV010-8: gB-1 specific mouse monoclonal IgG; IgH SEQ ID NO: 68, IgL SEQ ID NO: 70 (antibody, V domains shown)
VH: B2 VH with S30N, R31N, H32Y, N87T
VL: B2 VL with K18R, S30N, S74T, D79E, D82N
modifications: HSV010-8 heavy chain; HSV010-8 light chain
B9: HSV010-15: gB-1 specific mouse monoclonal IgG; IgH SEQ ID NO: 72, IgL SEQ ID NO: 74 (antibody, V domains shown)
VH: B4 VH with S24A, M34I, K38Q, H59N, N61S, T66S, V72L, S84I, S94Y, N101S
VL: B3 VL with F10Y, A34P, H42N, A52T, T74S, G100A
modifications: HSV010-15 heavy chain; HSV010-15 light chain

Molecular target: gB-1 (Human herpesvirus 1, UniProt P10211)
Experiment: Luminex competition: inhibition of binding of BMPC-23 human IgG to gB-1
Design: species or system HSV-1
Settings: BMPC-23 human IgG 2 ng/ml
Description: FIGS. 10A-10G show the capacity of gB-1 specific mouse monoclonal IgG antibodies to inhibit binding of BMPC-23 human IgG antibodies to gB-1.
Finding BMPC-like antibodies. Nine out of 10 gB-1 specific mouse monoclonal IgG antibodies in FIG. 3 were tested for their capacity to inhibit binding of BMPC-23 human IgG antibodies to gB-1. Serially diluted, gB-1 specific mouse monoclonal antibodies or irrelevant, control mouse antibody (H33Lγ1) were incubated with gB-1 conjugated Luminex beads. After incubation, fixed concentration (2 ng/ml) of BMPC-23 human IgG antibodies were added to each well. After washing, mouse anti-human lgG-PE was added to detect binding of human BMPC-23 antibodies. […] Strong inhibition by HSV010-4 (>95% at 222 ng/ml), HSV010-7 (>90% at 222 ng/ml), and HSV010-34 (>80% at 222 ng/ml), shown in FIGS. 10B, 10F, and 10G, respectively, indicates these antibodies bind epitopes on gB-1 closely overlapping with the one recognized by BMPC-23. Therefore, similar protective efficacy as BMPC-23 is expected from these antibodies (experiments in progress). […] Protective efficacy of these antibodies need to be tested (experiments in progress).

| Molecule | Inhibition of binding of BMPC-23 human IgG antibodies to gB-1 (in words) |
| --- | --- |
| B1 | No inhibition |

Same assay, conditions: Table 3 summary

| Molecule | Competition with BMPC-23 |
| --- | --- |
| B2 | Strong |
| B3 | Strong |
| B4 | Weak |
| B5 | Strong |
| B6 | Weak |
| B1 | No |

System: HSV-2 G infected cell lysates
Experiment: ELISA binding of recombinant antibodies to HSV-2 G infected cell lysates
Design: species or system HSV-2 G strain
Settings: Table 3 summary
Description: Binding of recombinant antibodies to HSV-2 G lysates was tested by ELISA. Both heavy and light chain V(D)J rearrangements were amplified from selected single B-cell culture wells (22D10, 32H6, 33B8, and 35H7) by standard RT-PCR. These cloned V(D)J rearrangements were introduced into expression vectors. Recombinant antibodies were obtained by co-transfection of these expression vectors into Expi293F cells. ≥4 mg of purified IgGs was obtained (not shown). […]
Briefly, mice were vaccinated with ΔgD-2 and then 16 days after vaccination, the draining, inguinal lymph nodes were harvested. GC B cells were isolated from these tissues and were cultured in Nojima cultures. Although overall cloning efficiency of GC B cells from these (shipped) tissues was lower than those from freshly isolated tissues (6% vs. 20%), 50 GC clones were obtained that were specific to HSV-2 G strain (HSV-2 G or HSV2-G) lysate. GC B cells from inguinal lymph nodes of mice vaccinated with ΔgD-2 were sorted directly into 96-well plates (1 cell/well). These GC B cells were then cultured in the presence of NB-21.2D9 feeder cells. After culture, presence of IgG was first determined by ELISA, and then the reactivity of culture supernatant IgG against HSV-2 G lysates (HSV-2 G) and uninfected Vero lysates were tested by ELISA.
Based on the obtained V(D)J sequences from each B-cell culture, paired heavy and light chains were re-expressed (as recombinant mouse IgG1 and IgG2c antibodies) in Expi293F cells (Kuraoka et al. Immunity 2016; DiLillo et al. Nature Medicine 2013). […] As expected, all recombinant antibodies reacted specifically with HSV-2 G lysates (FIG. 3). […] Binding of recombinant antibodies to HSV-2 G lysates was tested by ELISA. Both heavy and light chain V(D)J rearrangements were amplified from selected single B-cell culture wells (22D10, 32H6, 33B8, and 35H7) by standard RT-PCR. These cloned V(D)J rearrangements were introduced into expression vectors. Recombinant antibodies were obtained by co-transfection of these expression vectors into Expi293F cells. ≥4 mg of purified IgGs was obtained (not shown). […] These recombinant antibodies (≥4 mg each) were tested for identification of reacting antigen(s), in an in vitro FcγRIV activation assay (Promega FcγRIV ADCC Reporter Bioassay)(FIG. 4), and in vivo protection assay. […]

| Molecule | Binding to HSV-lysate |
| --- | --- |
| B7 | Yes |
| B2 | Yes |
| B8 | Yes |
| B3 | Yes |
| B4 | Yes |
| B5 | Yes |
| B6 | Yes |
| B9 | Yes |
| B1 | Yes |

Molecular target: glycoprotein B of HSV-1 (gB-1) (Human herpesvirus 1, UniProt P10211)
Experiment: Luminex multiplex assay, binding to gB-1
Settings: Table 3 summary
Description: FIGS. 9A and 9B are graphs of median fluorescence intensity (MFI) versus IgG concentration (ng/ml), showing the binding of various recombinant antibodies to gB-1 as measured by Luminex multiplex assay.
BMPC-23 binds HSV-1 gB (gB-1). The gB-1 binding of the antibodies was determined by Luminex multiplex assay. Mixtures of antigen (gB-1)-conjugated microspheres (1,000 counts each) were added to each well of 96-well filter plates (Millipore). After washing with PBS containing 1% BSA, 0.05% Tween 20 and 0.05% NaN3, serially diluted recombinant antibodies (5E7, 19G7, 18G4, 22E10, 3A2, 17G3, 22D10, 32H6, 33B8, 25H7, BMPC-23, and S5V2-29) were added to the plates and incubated for 2 hours at room temperature, with mild agitation of the plates. Samples were diluted in PBS containing 1% cow milk, 1% BSA, 0.05% Tween 20 and 0.05% NaN3. After washing, PE goat anti-mouse IgG was added to the plates and incubated for 1 hour at room temperature with mild agitation. After washing, microspheres were resuspended in PBS containing 1% BSA, 0.05% Tween 20 and 0.05% NaN3 and fluorescent signals from each microsphere were measured in a Bio-Plex® 3D machine.
Finding gB-1 specific HSV antibodies. After Nojima culture (single B-cell culture), HSV-specific antibodies were cloned from germinal center B cells and tested for binding to HSV-1 gB-1 by Luminex multiplex assay as described above. FIGS. 9A and 9B show the gB-1 binding results for 10 antibodies in comparison with BMPC-23. With the exception of BMPC-23, the antibodies in Table 3 were derived from germinal center B cells (lymph nodes) taken 15-17 days after primary vaccination with ΔgD-2. BMPC-23 was derived from bone marrow plasmacytes taken 2 weeks post-boost with ΔgD-2. Nucleotide sequences and amino acid sequences for the heavy-chains and light chains are shown in Table 4, as are the amino acid sequences for the light chain and heavy chain CDR1, CDR2, and CDR3.

| Molecule | Target antigens |
| --- | --- |
| B7 | gB |
| B2 | gB |
| B8 | gB |
| B3 | gB |
| B4 | gB |
| B5 | gB |
| B6 | gB |
| B9 | gB |
| B1 | gB |

From patent publication US12459987B2, “Monoclonal antibodies for prevention and treatment of herpes simplex viral infections” (priority 2019, dated 2025)
